From patent US20220204585A1 (RUSH UNIVERSITY MEDICAL CENTER, published 2022)

Legend:
[1] = molecular target: T1, CD11b A-domain CD11bA-D140A/F275S/F302G, construct BZ348010 (human, UniProt P11215 148-337); test: counterscreen phage ELISA on coated antigen
T1 chain: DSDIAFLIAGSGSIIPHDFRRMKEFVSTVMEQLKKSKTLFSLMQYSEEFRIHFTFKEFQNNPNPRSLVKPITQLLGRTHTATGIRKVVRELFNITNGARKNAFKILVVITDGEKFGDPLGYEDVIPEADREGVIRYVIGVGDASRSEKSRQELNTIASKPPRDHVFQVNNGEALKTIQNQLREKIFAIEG
Protocol: (§1) After 2 rounds of enrichment against the primary target, positive binders were identified by phage ELISA and analyzed by restriction mapping & sequencing for identification of unique clones. Small scale phage growths were diluted 1:5 in TBS+casein. Nunc Maxi-Sorp strip wells were coated at ˜5 ug/ml of each test protein overnight at 4° C. and blocked with TBS+casein. The diluted phage were applied and allowed to bind for 1 hour with shaking. The wells were washed 4 times with TBS+0.05% Tween20 and twice with TBS. Bound phage were detected by incubation for 1 hour with anti-M13-HRP and after washing as above, developed with TMB. Absorbance at 450 nm was read after acidification of the wells.

[2] = molecular target: T2, CD11b A-domain CD11bA-D140A, construct BZ348008 (human, UniProt P11215 148-337); test: counterscreen phage ELISA on coated antigen
T2 construct: MIDAS residue D140 replaced with alanine (no MIDAS metal)
T2 chain: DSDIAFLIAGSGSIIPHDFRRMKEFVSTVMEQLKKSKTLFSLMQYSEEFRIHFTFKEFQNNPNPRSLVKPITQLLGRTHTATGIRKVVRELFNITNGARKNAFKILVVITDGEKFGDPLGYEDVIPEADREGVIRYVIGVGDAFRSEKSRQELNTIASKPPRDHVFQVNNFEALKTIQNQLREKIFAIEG
Protocol: as §1

[3] = molecular target: T3, CD11b A-domain CD11bA-D242A, construct BZ348011 (human, UniProt P11215 148-337); test: counterscreen phage ELISA on coated antigen
T3 construct: MIDAS residue D242 replaced with alanine (no MIDAS metal)
T3 chain: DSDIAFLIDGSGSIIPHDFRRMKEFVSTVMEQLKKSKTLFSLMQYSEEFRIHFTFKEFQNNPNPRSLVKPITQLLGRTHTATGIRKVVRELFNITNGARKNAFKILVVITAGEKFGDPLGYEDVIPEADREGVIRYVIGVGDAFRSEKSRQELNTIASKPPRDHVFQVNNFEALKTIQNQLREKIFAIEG
Protocol: as §1

[4] = molecular target: T4, CD11b A-domain CD11bA-D242A/F275S/F302G, construct BZ348014 (human, UniProt P11215 148-337); test: counterscreen phage ELISA on coated antigen
T4 construct: the antigen on which the libraries were enriched; also called BZ348014 antigen
T4 chain: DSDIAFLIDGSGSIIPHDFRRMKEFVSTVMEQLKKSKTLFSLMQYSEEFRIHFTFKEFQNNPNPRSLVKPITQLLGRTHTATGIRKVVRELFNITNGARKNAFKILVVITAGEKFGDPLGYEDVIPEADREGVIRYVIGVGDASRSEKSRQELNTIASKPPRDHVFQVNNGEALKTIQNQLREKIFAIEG
Protocol: as §1

[5] = molecular target: T5, CD11b A-domain CD11bA WT (WT residues 132-321), construct BZ348007 (human, UniProt P11215 148-337); test: counterscreen phage ELISA on coated antigen
T5 construct: Residues numbered on mature CD11b (signal peptide of 16 residues removed); also called His-TEV-CD11b
Protocol: as §1

[6] = molecular target: T6, CD11b A-domain CD11bA-F275S/F302G, construct BZ348013 (human, UniProt P11215 148-337); test: counterscreen phage ELISA on coated antigen
T6 chain: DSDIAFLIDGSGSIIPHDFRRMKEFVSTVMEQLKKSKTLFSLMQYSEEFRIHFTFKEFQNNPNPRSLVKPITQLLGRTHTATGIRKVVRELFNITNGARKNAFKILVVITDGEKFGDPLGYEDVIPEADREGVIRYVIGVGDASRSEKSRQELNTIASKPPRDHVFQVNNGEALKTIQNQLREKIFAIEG
Protocol: as §1

[7] = molecular target: T1, CD11b A-domain …; test: phage ELISA dilution series, phage diluted 1:5
[8] = molecular target: T2, CD11b A-domain CD11bA-D140A, construct …; test: phage ELISA dilution series, phage diluted 1:5
[9] = molecular target: T3, CD11b A-domain CD11bA-D242A, construct …; test: phage ELISA dilution series, phage diluted 1:5
[10] = molecular target: T4, CD11b A-domain …; test: phage ELISA dilution series, phage diluted 1:5
[11] = molecular target: T5, CD11b A-domain CD11bA WT (WT residues …); test: phage ELISA dilution series, phage diluted 1:5
[12] = molecular target: T6, CD11b A-domain CD11bA-F275S/F302G, …; test: phage ELISA dilution series, phage diluted 1:5
[13] = molecular target: T4, CD11b A-domain …; test: phage ELISA, phage diluted 1:5 on coated antigen (~5 ug/ml), anti-M13-HRP
Protocol: as §1

[14] = molecular target: T1, CD11b A-domain …; test: phage ELISA dilution series, phage diluted 1:50
[15] = molecular target: T2, CD11b A-domain CD11bA-D140A, construct …; test: phage ELISA dilution series, phage diluted 1:50
[16] = molecular target: T3, CD11b A-domain CD11bA-D242A, construct …; test: phage ELISA dilution series, phage diluted 1:50
[17] = molecular target: T4, CD11b A-domain …; test: phage ELISA dilution series, phage diluted 1:50
[18] = molecular target: T5, CD11b A-domain CD11bA WT (WT residues …); test: phage ELISA dilution series, phage diluted 1:50
[19] = molecular target: T6, CD11b A-domain CD11bA-F275S/F302G, …; test: phage ELISA dilution series, phage diluted 1:50
[20] = molecular target: T1, CD11b A-domain …; test: phage ELISA dilution series, phage diluted 1:16
[21] = molecular target: T2, CD11b A-domain CD11bA-D140A, construct …; test: phage ELISA dilution series, phage diluted 1:16
[22] = molecular target: T3, CD11b A-domain CD11bA-D242A, construct …; test: phage ELISA dilution series, phage diluted 1:16
[23] = molecular target: T4, CD11b A-domain …; test: phage ELISA dilution series, phage diluted 1:16
[24] = molecular target: T5, CD11b A-domain CD11bA WT (WT residues …); test: phage ELISA dilution series, phage diluted 1:16
[25] = molecular target: T6, CD11b A-domain CD11bA-F275S/F302G, …; test: phage ELISA dilution series, phage diluted 1:16

B1: Clone 14 149-014-14 (VK-Linker-VH) (scFv)
scFv: DVVMTQSPLSLPATLGQPASISCRSSQSLVYTDGNTYLNWFQQRPGQSPRRLIYKVSNRDSGVPDRFSGSGSGTHFTLKISRVEAEDVGVYYCMQGTHWPPTFGQGTKVEIKEGKSSGSGSESKASEVQLVQSGAEVKKPGASVKVSCKASGGTFSSYAISWVRQAPGQGLEWMGGIIPIFGTANYAQKFQGRVTITADESTSTAYMELSSLRSEDTAVYYCASSGVDYWGQGTLVTVSS
notes: From the naive human scFv phage display library
Absorbance at 450 nM [1]: 0.659 | Absorbance at 450 nM [2]: 0.38 | Absorbance at 450 nM [3]: 0.259 | Absorbance at 450 nM [4]: 1.06 | Absorbance at 450 nM [5]: 0.22 | Absorbance at 450 nM [6]: 0.953 | Absorbance at 450 nM [7]: 0.046 | Absorbance at 450 nM [8]: 0.372 | Absorbance at 450 nM [9]: 0.2 | Absorbance at 450 nM [10]: 0.782 | Absorbance at 450 nM [11]: 0.557 | Absorbance at 450 nM [12]: 1.38 | Absorbance at 450 nM [13]: 0.598 | Absorbance at 450 nM [14]: 0.04 | Absorbance at 450 nM [15]: 0.047 | Absorbance at 450 nM [16]: 0.045 | Absorbance at 450 nM [17]: 0.059 | Absorbance at 450 nM [18]: 0.06 | Absorbance at 450 nM [19]: 0.078 | Absorbance at 450 nM [20]: 0.038 | Absorbance at 450 nM [21]: 0.08 | Absorbance at 450 nM [22]: 0.054 | Absorbance at 450 nM [23]: 0.356 | Absorbance at 450 nM [24]: 0.101 | Absorbance at 450 nM [25]: 0.278

B2: Clone 5 149-014-5 (VL-Linker-VH) (scFv)
scFv: SSELTQDPAVSVALGQTVRITCQGDSLRSYYASWYQQKPGQAPVLVIYGKNNRPSGIPDRFSGSTSGNFASLTITGAQAEDGADYYCHSRDSSGNHLVFGGGTKLTVLGEGKSSGSGSESKASEVQLVQSGAEVKKPGESLKISCKGSGYSFTSYWIGWVRQMPGKGLEWMGIIYPGDSDTRYSPSFQGQVTISADKSISTAYLQWSSLKASDTAMYYCARRARGAFDIWGQGTLVTVSS
notes: as for B1
Absorbance at 450 nM [1]: 1.74 | Absorbance at 450 nM [2]: 1.85 | Absorbance at 450 nM [3]: 1.77 | Absorbance at 450 nM [4]: 1.69 | Absorbance at 450 nM [5]: 1.78 | Absorbance at 450 nM [6]: 1.65 | Absorbance at 450 nM [13]: 1.37

B3: Clone 6 149-014-6 (VL-linker-VH) (scFv)
scFv: QSVLTQPPSASGTPGQRVTISCSGSSSNIGSNYVSWYQQLPGTAPKLLIYDNNKRPSGIPDRFSGSKSGTSATLGITGLQTGDEADYYCGTWDSSLSALYVFGAGTKLTVLGEGKSSGSGSESKASQVQLQESGPGLVKPSETLSLTCSVSGGSTSSYYWSWIRQPPGKGLEWIGYISNSGSTNYNPSLKSRVTMSIDTSNNQFSLKLSSVTAADTAVYYCASHLGATWRWGQGTLVTVSS
notes: as for B1
Absorbance at 450 nM [1]: 1.51 | Absorbance at 450 nM [2]: 0.058 | Absorbance at 450 nM [3]: 0.169 | Absorbance at 450 nM [4]: 1.25 | Absorbance at 450 nM [5]: 0.567 | Absorbance at 450 nM [6]: 1.3 | Absorbance at 450 nM [13]: 0.641

B4: Clone 13 149-014-13 VH only (other)
VH: EVQLLESGGGLVQPGGSLRLSCAASGFTFSSDLMSWVRQAPGKGLEWVSAISGSGGSTYYADSVKGRFTISRDNSKNTLYLQMNSLRAEDTAVYYCAKNEVIFDYWGQGTLVTVSSASTKGLSMFDYWGQGTKVEIK
Absorbance at 450 nM [1]: 0.495 | Absorbance at 450 nM [2]: 0.228 | Absorbance at 450 nM [3]: 0.183 | Absorbance at 450 nM [4]: 0.866 | Absorbance at 450 nM [5]: 0.169 | Absorbance at 450 nM [6]: 0.954 | Absorbance at 450 nM [13]: 0.499
